According to patent US20240076384A1 (DRAGONFLY THERAPEUTICS, published 2024):

T1: human NKG2D expressed on EL4 cells (human, UniProt P26718 1-216)
T1 construct: whole, on cells; also called NKG2D on EL4 cells; extracellular NKG2D expressed on EL4 cells
T1 sequence (looked up): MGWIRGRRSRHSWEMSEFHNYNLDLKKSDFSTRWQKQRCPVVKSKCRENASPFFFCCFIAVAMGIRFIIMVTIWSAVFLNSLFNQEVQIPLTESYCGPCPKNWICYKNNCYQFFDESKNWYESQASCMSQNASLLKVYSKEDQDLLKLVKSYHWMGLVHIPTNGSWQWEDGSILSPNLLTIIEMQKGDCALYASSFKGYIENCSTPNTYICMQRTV

T2: ULBP6 (NKG2D natural ligand) (Homo sapiens (Human), UniProt Q5VY80 26-218)
T2 sequence: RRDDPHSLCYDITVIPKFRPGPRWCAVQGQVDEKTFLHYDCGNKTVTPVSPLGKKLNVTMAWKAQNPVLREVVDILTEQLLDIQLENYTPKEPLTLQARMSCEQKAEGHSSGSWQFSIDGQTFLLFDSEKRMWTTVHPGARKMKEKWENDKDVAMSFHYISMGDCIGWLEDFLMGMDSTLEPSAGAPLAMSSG

B1: soluble mouse Fc-human NKG2D dimer (Fc fusion, UniProt P26718 78-216, looked up)
chain: FLNSLFNQEVQIPLTESYCGPCPKNWICYKNNCYQFFDESKNWYESQASCMSQNASLLKVYSKEDQDLLKLVKSYHWMGLVHIPTNGSWQWEDGSILSPNLLTIIEMQKGDCALYASSFKGYIENCSTPNTYICMQRTV
notes: also called mFc-hNKG2D; fusion protein of human NKG2D and murine Fc; not shown: mouse (murine) Fc

Columns and labels:
[1] = target: B1; assay: SPR (Biacore 8K), antibody captured on anti-human Fc, soluble mouse Fc-human NKG2D dimer as analyte, 37 C, kd/ka
Protocol: (§1) Kinetics and affinity of various NKG2D-binding domains were assessed by surface plasmon resonance using Biacore 8K instrument (GE Healthcare). Anti-human Fc antibody was immobilized on a CM5 chip using standard amine coupling chemistry. Human monoclonal antibodies containing various NKG2D-binding domains were captured on the anti-human Fc chip at a density of approximately 100 RU. Solutions containing 0.411-100 nM soluble mouse Fc-human NKG2D dimers were injected over the captured NKG2D antibodies and control surfaces at 30 μl/min at 37° C. Surfaces were regenerated between cycles by quick injection of 10 mM glycine, pH 1.8. To obtain kinetic rate constants, double-referenced data were fit to a 1:1 interaction model using Biacore 8K Evaluation software (GE Healthcare). The equilibrium binding constant KD was determined by the ratio of dissociation constant kd and association constant kₐ (kd/kₐ).

[2] = target: B1; assay: SPR (Biacore 8K), antibody captured on anti-human Fc, soluble mouse Fc-human NKG2D dimer as analyte, 37 C, 1:1 fit
Protocol: as §1

[3] = target: B1; assay: SPR (Biacore 8K, 25 C), captured mouse Fc-human NKG2D, consecutive injections; F47 injected after A44 was bound
From the text: (§2) Briefly, mouse Fc-human NKG2D was captured using an anti-mouse Fc antibody immobilized on a CM5 chip at a density of approximately 100 RU. […] Biacore 8K evaluation software was used for all data analysis.

[4] = target: T3, CD33 expressed on human AML cell line MV4-11 (human, UniProt P20138 18-364); assay: flow cytometry on Mv4-11 cells, anti-human IgG secondary, fold over background against secondary antibody control
T3 construct: whole, on cells; also called CD33 expressed on Mv4-11 cells
T3 sequence (P20138 18-364): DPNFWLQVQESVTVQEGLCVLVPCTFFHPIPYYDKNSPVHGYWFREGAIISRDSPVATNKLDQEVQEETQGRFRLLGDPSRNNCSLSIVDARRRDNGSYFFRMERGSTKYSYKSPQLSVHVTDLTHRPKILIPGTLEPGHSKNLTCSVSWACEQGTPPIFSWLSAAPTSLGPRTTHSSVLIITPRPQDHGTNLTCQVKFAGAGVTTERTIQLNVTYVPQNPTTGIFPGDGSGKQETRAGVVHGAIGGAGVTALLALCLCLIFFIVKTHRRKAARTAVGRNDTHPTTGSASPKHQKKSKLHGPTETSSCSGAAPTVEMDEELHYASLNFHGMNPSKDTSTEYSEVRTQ
Protocol: Human AML cell line MV4-11, expressing CD33 was used to assay the binding of TriNKETs to the tumor-associated antigen. TriNKETs and the parental CD33 monoclonal antibody were incubated with the cells, and the binding was detected using fluorophore-conjugated anti-human IgG secondary antibodies. Cells were analyzed by flow cytometry, and fold-over-background (FOB) was calculated using the mean fluorescence intensity (MFI) from TriNKETs and the parental monoclonal CD33 antibody normalized to secondary antibody controls.

[5] = target: T1, human NKG2D expressed on EL4 cells; assay: flow cytometry on EL4 cells expressing NKG2D, anti-human IgG secondary, fold over background against parental EL4 cells
Protocol: EL4 mouse lymphoma cell lines were engineered to express human NKG2D. […] The binding of the multispecific binding proteins to NKG2D was detected using fluorophore-conjugated anti-human IgG secondary antibodies. Cells were analyzed by flow cytometry, and fold-over-background (FOB) was calculated using the mean fluorescence intensity (MFI) of NKG2D expressing cells compared to parental EL4 cells.

[6] = target: B1; assay: SPR (Biacore 8K); lower end of the group's range, tied to ADI-27744 by Table 9
Protocol: as §1

[7] = target: T2, ULBP6 (NKG2D natural ligand); assay: SPR (Biacore 8K, 25 C), captured mouse Fc-human NKG2D, consecutive injections; ULBP6 injected after A44 (ADI-27744 antibody) was bound
From the text: as §2

Kd [1] [nM] | koff [2] [s⁻¹] | kon [2] [M⁻¹ s⁻¹] | binding result [4] | Binder | also measured
50.7 | 0.0225 | 443000 | – | Human monoclonal antibody containing NKG2D-binding domain ADI-29379 (antibody, V domains shown, Tested as a human monoclonal antibody; also called E79; ADI-29379 (E79)) VH: QVQLVQSGAEVKKPGASVKVSCKASGYTFTSYYMHWVRQAPGQGLEWMGIINPSGGSTSYAQKFQGRVTMTRDTSTSTVYMELSSLRSEDTAVYYCARGAPNYGDTTHDYYYMDVWGKGTTVTVSS VL: EIVMTQSPATLSVSPGERATLSCRASQSVSSNLAWYQQKPGQAPRLLIYGASTRATGIPARFSGSGSGTEFTLTISSLQSEDFAVYYCQQYDDWPFTFGGGTKVEIK | –
58.5 | 0.0487 | 832000 | – | Human monoclonal antibody containing NKG2D-binding domain ADI-29378 (antibody, V domains shown, Tested as a human monoclonal antibody; also called E78; ADI-29378 (E78)) VH: QVQLVQSGAEVKKPGASVKVSCKASGYTFTSYYMHWVRQAPGQGLEWMGIINPSGGSTSYAQKFQGRVTMTRDTSTSTVYMELSSLRSEDTAVYYCAREGAGFAYGMDYYYMDVWGKGTTVTVSS VL: EIVLTQSPATLSLSPGERATLSCRASQSVSSYLAWYQQKPGQAPRLLIYDASNRATGIPARFSGSGSGTDFTLTISSLEPEDFAVYYCQQSDNWPFTFGGGTKVEIK | –
– | – | – | – | NKG2D monoclonal antibody comprising F47 (antibody, V domains shown, Monoclonal antibody) VH: QVQLQQWGAGLLKPSETLSLTCAVYGGSFSGYYWSWIRQPPGKGLEWIGEIDHSGSTNYNPSLKSRVTISVDTSKNQFSLKLSSVTAADTAVYYCARARGPWSFDPWGQGTLVTVSS VL: DIQMTQSPSTLSASVGDRVTITCRASQSISSWLAWYQQKPGKAPKLLIYKASSLESGVPSRFSGSGSGTEFTLTISSLQPDDFATYYCQQYDTFITFGGGTKVEIK | binding result [3]: binds
– | – | – | binds | CD33-TriNKET-A44 (ADI-27744 and a CD33 binding domain) (bispecific antibody, V domains shown) VH 1: not shown VL 1: DIQMTQSPSSVSASVGDRVTITCRASQGIDSWLAWYQQKPGKAPKLLIYAASSLQSGVPSRFSGSGSGTDFTLTISSLQPEDFATYYCQQGVSYPRTFGGGTKVEIK VH 2: QVQLVQSGAEVKKPGASVKVSCKASGYTFTDYVVHWVRQAPGQGLEWMGYINPYNDGTKYNEKFKGRVTMTRDTSISTAYMELSRLRSDDTAVYYCARDYRYEVYGMDYWGQGTLVTVSS VL 2: DIVLTQSPASLAVSPGQRATITCTASSSVNYIHWYQQKPGQPPKLLIYDTSKVASGVPARFSGSGSGTDFTLTINPVEANDTANYYCQQWRSYPLTFGQGTKLEIK | binding result [5]: binds
10.1 | 0.00299 | 295000 | – | NKG2D monoclonal antibody comprising ADI-27744 (antibody, V domains shown, also called A44) VH: not shown VL: DIQMTQSPSSVSASVGDRVTITCRASQGIDSWLAWYQQKPGKAPKLLIYAASSLQSGVPSRFSGSGSGTDFTLTISSLQPEDFATYYCQQGVSYPRTFGGGTKVEIK | Kd [6]: 10 to 62 nM
12.4 | 0.00489 | 395000 | – | NKG2D monoclonal antibody comprising ADI-27749 (antibody, V domains shown, also called A49) VH: EVQLVESGGGLVKPGGSLRLSCAASGFTFSSYSMNWVRQAPGKGLEWVSSISSSSSYIYYADSVKGRFTISRDNAKNSLYLQMNSLRAEDTAVYYCARGAPMGAAAGWFDPWGQGTLVTVSS VL: DIQMTQSPSSVSASVGDRVTITCRASQGISSWLAWYQQKPGKAPKLLIYAASSLQSGVPSRFSGSGSGTDFTLTISSLQPEDFATYYCQQGVSFPRTFGGGTKVEIK | –
– | – | – | binds | CD33-TriNKET-F63 (ADI-29463 and a CD33 binding domain) (bispecific antibody, V domains shown) VH 1: not shown VL 1: EIVLTQSPGTLSLSPGERATLSCRASQSVSSNLAWYQQKPGQAPRLLIYGASTRATGIPARFSGSGSGTEFTLTISSLQSEDFAVYYCQQDDYWPPTFGGGTKVEIK VH 2: QVQLVQSGAEVKKPGASVKVSCKASGYTFTDYVVHWVRQAPGQGLEWMGYINPYNDGTKYNEKFKGRVTMTRDTSISTAYMELSRLRSDDTAVYYCARDYRYEVYGMDYWGQGTLVTVSS VL 2: DIVLTQSPASLAVSPGQRATITCTASSSVNYIHWYQQKPGQPPKLLIYDTSKVASGVPARFSGSGSGTDFTLTINPVEANDTANYYCQQWRSYPLTFGQGTKLEIK | –
– | – | – | binds | CD33-TriNKET-A49 (ADI-27749 and a CD33 binding domain) (bispecific antibody, V domains shown) VH 1: EVQLVESGGGLVKPGGSLRLSCAASGFTFSSYSMNWVRQAPGKGLEWVSSISSSSSYIYYADSVKGRFTISRDNAKNSLYLQMNSLRAEDTAVYYCARGAPMGAAAGWFDPWGQGTLVTVSS VL 1: DIQMTQSPSSVSASVGDRVTITCRASQGISSWLAWYQQKPGKAPKLLIYAASSLQSGVPSRFSGSGSGTDFTLTISSLQPEDFATYYCQQGVSFPRTFGGGTKVEIK VH 2: QVQLVQSGAEVKKPGASVKVSCKASGYTFTDYVVHWVRQAPGQGLEWMGYINPYNDGTKYNEKFKGRVTMTRDTSISTAYMELSRLRSDDTAVYYCARDYRYEVYGMDYWGQGTLVTVSS VL 2: DIVLTQSPASLAVSPGQRATITCTASSSVNYIHWYQQKPGQPPKLLIYDTSKVASGVPARFSGSGSGTDFTLTINPVEANDTANYYCQQWRSYPLTFGQGTKLEIK | binding result [5]: binds
– | – | – | – | B1 | binding result [7]: binds
